In the Immune Epitope Database (IEDB):
pKd: −log10 of the molar value.

Experiments:
Experiment in all cases: IEDB peptide-MHC binding, purified MHC/competitive/radioactivity; filed as Kd, often an IC50 or EC50 that approximates it; ≥ and ≤ were set here for values at or beyond the usual limits of such assays
Settings in all cases: source organism: Influenza A virus
[1] = molecular target: HLA-A*03:01
[2] = molecular target: HLA-A*11:01
[3] = molecular target: HLA-A*31:01
[4] = molecular target: HLA-A*33:01
[5] = molecular target: HLA-A*68:01
[6] = molecular target: HLA-A*02:01
[7] = molecular target: HLA-A*02:02
[8] = molecular target: HLA-A*02:03
[9] = molecular target: HLA-A*02:06
[10] = molecular target: HLA-A*68:02
[11] = molecular target: HLA-A*23:01
[12] = molecular target: HLA-A*24:02
[13] = molecular target: HLA-A*29:02
[14] = molecular target: HLA-A*30:02
[15] = molecular target: HLA-B*18:01
[16] = molecular target: HLA-B*40:01
[17] = molecular target: HLA-B*40:02
[18] = molecular target: HLA-B*44:02
[19] = molecular target: HLA-B*44:03
[20] = molecular target: HLA-B*45:01
[21] = molecular target: HLA-B*35:01
[22] = molecular target: HLA-B*51:01
[23] = molecular target: HLA-B*53:01
[24] = molecular target: HLA-B*54:01
[25] = molecular target: HLA-A*01:01

## ASCMGLIYNR
[1]
  pKd: 6.09
[2]
  pKd: 7.49
[3]
  pKd: 8.15
[4]
  pKd: 6.35
[5]
  pKd: 6.41

## CLPACVYGL
[6]
  pKd: 7.10
[7]
  pKd: 8.40
[8]
  pKd: 6.84
[9]
  pKd: 7.02
[10]
  pKd: 5.42

## FQGRGVFEL
[6]
  pKd: 6.84
[7]
  pKd: 8.15
[8]
  pKd: 6.51
[9]
  pKd: 8.15
[10]
  pKd: ≤ 5.00

## FQVDCFLWHV
[6]
  pKd: 8.40
[7]
  pKd: 8.40
[8]
  pKd: 8.52
[9]
  pKd: ≥ 9.00
[10]
  pKd: 6.66

## FYIQMCTEL
[11]
  pKd: 8.10
[12]
  pKd: 7.62
[13]
  pKd: 5.81
[14]
  pKd: ≤ 5.00

## FYRYGFVANF
[11]
  pKd: 7.89
[12]
  pKd: 7.77
[13]
  pKd: 6.09
[14]
  pKd: ≤ 5.00

## GERQNATEI
[15]
  pKd: ≤ 5.00
[16]
  pKd: 6.70
[17]
  pKd: 7.28
[18]
  pKd: ≤ 5.00
[19]
  pKd: ≤ 5.00
[20]
  pKd: 6.52

## GTFEFTSFFY
[1]
  pKd: 7.80
[2]
  pKd: ≥ 9.00
[3]
  pKd: 6.62
[4]
  pKd: 5.27
[5]
  pKd: 7.00

## KFLPDLYDYK
[1]
  pKd: 6.59
[2]
  pKd: 7.66
[3]
  pKd: 5.62
[4]
  pKd: ≤ 5.00
[5]
  pKd: 6.29

## KLVGINMSKK
[1]
  pKd: 7.85
[2]
  pKd: 6.50
[3]
  pKd: 6.29
[4]
  pKd: ≤ 5.00
[5]
  pKd: 5.79

## KSCLPACVY
[13]
  pKd: ≤ 5.00
[14]
  pKd: 7.37

## LPRRSGAAGA
[21]
  pKd: ≤ 5.00
[22]
  pKd: ≤ 5.00
[23]
  pKd: ≤ 5.00
[24]
  pKd: 7.33

## NMLSTVLGV
[7]
  pKd: 8.30
[8]
  pKd: 7.96
[9]
  pKd: 8.52
[10]
  pKd: 5.97

## QEIRTFSFQL
[15]
  pKd: 6.29
[16]
  pKd: 6.87
[17]
  pKd: 7.17
[18]
  pKd: 6.99
[19]
  pKd: 6.37
[20]
  pKd: 6.42

## RLFFKCIYRR
[1]
  pKd: 6.87
[2]
  pKd: 6.53
[3]
  pKd: 8.30
[4]
  pKd: 6.62
[5]
  pKd: 7.06

## SEQAAEAMEV
[15]
  pKd: 5.72
[16]
  pKd: 5.57
[17]
  pKd: 7.07
[18]
  pKd: 5.58
[19]
  pKd: 5.12
[20]
  pKd: 7.46

## SFSFGGFTFK
[4]
  pKd: 7.07

## SVQPTFSVQR
[1]
  pKd: ≤ 5.00
[2]
  pKd: 7.43
[3]
  pKd: 7.68
[4]
  pKd: 6.74
[5]
  pKd: 7.08

## SVQRNLPFER
[1]
  pKd: ≤ 5.00
[2]
  pKd: 6.39
[3]
  pKd: 6.98
[4]
  pKd: 6.49
[5]
  pKd: 7.72

## TEVETYVLSI
[15]
  pKd: 6.87
[16]
  pKd: 6.88
[17]
  pKd: 6.71
[18]
  pKd: 5.16
[19]
  pKd: 6.61
[20]
  pKd: 6.30

## VLRGFLILGK
[1]
  pKd: 8.00
[2]
  pKd: 6.34
[3]
  pKd: 7.07
[4]
  pKd: ≤ 5.00
[5]
  pKd: 5.94

## YSHGTGTGY
[25]
  pKd: 6.70
[13]
  pKd: 6.31
[14]
  pKd: 6.88
